Literature values, collected in article PMC4965862.

Biological target: Cys45 (UniProt position 45, AFTGICQGELD)
Settings: reduced enzyme (Cys45 thiol/thiolate)

In the case of “Alkyl hydroperoxide reductase E (AhpE), one-cysteine peroxiredoxin (Mycobacterium tuberculosis)”, the pKa is listed as 5.2.
